± gives the standard deviation of the averaged measurements.

In data set [1] the test system is VchCAST RNA-guided transposition machinery (E. coli BL21(DE3) host, lacZ target). Kind of data set: relative integration efficiency (T-RL orientation) vs wild-type transposon end (log2 (normalized fold change)); transposon end mutated: right end (5 bp flank + 75 bp right end); higher = more efficient transposition. Put shortly: (§1)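 In E. coli BL21(DE3), a T7-driven effector plasmid was paired with a pUC57 mini-transposon donor containing 1549 left-end or 1849 right-end barcoded transposon variants. Cells grew on plates with 0.1 mM IPTG at 37°C for 18 h. Relative integration efficiency was derived from Illumina reads of genomic integration junctions against input plasmids, as a log-transformed output/input barcode fold change normalised to reference barcodes.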

Data set [2] has the same test system. Kind of data set: relative integration efficiency (T-LR orientation) vs wild-type transposon end (log2 (normalized fold change)); transposon end mutated: right end (5 bp flank + 75 bp right end); higher = more efficient transposition. Put shortly:
as §1

Consider “ACATTTGTTGATACAACCATAAAATGATAATTAATAATTATTTATAATCAGCAACTTAACCACACCCATAAATTGATAATTATCACACCCATAAATTGATATTGCCTCTGATCATAGTCAGACCAAC”, for which the “relative integration efficiency (log2)” value is -4.19 ± 0.29 in data set [1] and -0.704 ± 0.18 in data set [2].
For “ACATTTGTTGATACAACCATAAAATGATAATTAATAATTATTTATAATCAGCAACTTAACCACCACCCATAAATTGATAATTATCAACAAACGCCCGGTCGCGGTACTCTGATCATAGTCAGACCAA”, in that order: -3.21 ± 0.38 and 0.423 ± 1.1.
For “ACATTTGTTGATACAACCATAAAATGATAATTAATAATTATTTATAATCAGCAACTTAACCACCACCCATAAATTGATAATTATCACACCCATAAATTGATATTGCCTCTGATCATAGTCAGACCAA”, in that order: -3.5 ± 0.74 and -0.482 ± 0.91.
For “ACATTTGTTGATACAACCATAAAATGATAATTAATAATTATTTATAATCAGCAACTTAACCACCCATAAATTGATAATTATCAACAAACGCCCGGTCGCGGTACTCTGATCATAGTCAGACCAACAT”, in that order: -3.11 ± 0.29 and 0.501 ± 0.39.
In the case of “ACATTTGTTGATACAACCATAAAATGATAATTAATAATTATTTATAATCAGCAACTTAACCACCCATAAATTGATAATTATCACACCCATAAATTGATATTGCCTCTGATCATAGTCAGACCAACAT”, the “relative integration efficiency (log2)” value is -3.17 ± 0.073 in data set [1] and -1.2 ± 2.8 in data set [2].
For “ACATTTGTTGATACAACCATAAAATGATAATTAATAATTATTTATAATCAGCAACTTAACCCACCCATAAATTGATAATTATCAACAAACGCCCGGTCGCGGTACTCTGATCATAGTCAGACCAACA”, in that order: -2.76 ± 0.67 and 0.743 ± 0.49.
For “ACATTTGTTGATACAACCATAAAATGATAATTAATAATTATTTATAATCAGCAACTTAACCCACCCATAAATTGATAATTATCACACCCATAAATTGATATTGCCTCTGATCATAGTCAGACCAACA”, in that order: -3.06 ± 0.43 and 0.044 ± 0.09.
For “ACATTTGTTGATACAACCATAAAATGATAATTAATAATTATTTATAATCAGCAACTTACACCCATAAATTGATAATTATCAACAAACGCCCGGTCGCGGTACTCTGATCATAGTCAGACCAACATTG”, in that order: -4.47 ± 1 and -1.91 ± 0.28.
“ACATTTGTTGATACAACCATAAAATGATAATTAATAATTATTTATAATCAGCAACTTACACCCATAAATTGATAATTATCACACCCATAAATTGATATTGCCTCTGATCATAGTCAGACCAACATTG”: the “relative integration efficiency (log2)” value in data set [1] is -5.34 ± 0.86; in data set [2], -3.43 ± 0.46.
For “ACATTTGTTGATACAACCATAAAATGATAATTAATAATTATTTATAATCAGCAACTTCACCCATAAATTGATAATTATCAACAAACGCCCGGTCGCGGTACTCTGATCATAGTCAGACCAACATTGC”, in that order: -2.15 ± 0.52 and 0.707 ± 0.87.
For “ACATTTGTTGATACAACCATAAAATGATAATTAATAATTATTTATAATCAGCAACTTCACCCATAAATTGATAATTATCACACCCATAAATTGATATTGCCTCTGATCATAGTCAGACCAACATTGC”, in that order: -3.33 ± 0.32 and -1.32 ± 0.21.
For “ACATTTGTTGATACAACCATAAAATGATAATTAATAATTATTTATAATCAGCACACCCATAAATTGATAATTATCAACAAACGCCCGGTCGCGGTACTCTGATCATAGTCAGACCAACATTGCTACG”, in that order: -2.43 ± 0.16 and 0.238 ± 0.52.
“ACATTTGTTGATACAACCATAAAATGATAATTAATAATTATTTATAATCAGCACACCCATAAATTGATAATTATCACACCCATAAATTGATATTGCCTCTGATCATAGTCAGACCAACATTGCTACG”: the “relative integration efficiency (log2)” value is -4.17 ± 0.11 in data set [1] and -2.77 ± 0.42 in data set [2].
For “ACATTTGTTGATACAACCATAAAATGATAATTAATAATTATTTATAATCAGCACCCATAAATTGATAATTATCAACAAACGCCCGGTCGCGGTACTCTGATCATAGTCAGACCAACATTGCTACGAC”, in that order: -2.03 ± 0.4 and 0.752 ± 0.5.
For “ACATTTGTTGATACAACCATAAAATGATAATTAATAATTATTTATAATCAGCACCCATAAATTGATAATTATCACACCCATAAATTGATATTGCCTCTGATCATAGTCAGACCAACATTGCTACGAC”, in that order: -3.29 ± 0.1 and -0.258 ± 0.51.
For “ACATTTGTTGATACAACCATAAAATGATAATTAATAATTATTTATAATCAGCCACCCATAAATTGATAATTATCAACAAACGCCCGGTCGCGGTACTCTGATCATAGTCAGACCAACATTGCTACGA”, in that order: -1.83 ± 0.4 and 1.16 ± 0.037.
Consider “ACATTTGTTGATACAACCATAAAATGATAATTAATAATTATTTATAATCAGCCACCCATAAATTGATAATTATCACACCCATAAATTGATATTGCCTCTGATCATAGTCAGACCAACATTGCTACGA”, for which the “relative integration efficiency (log2)” value was -3.35 ± 0.33 in data set [1] and -0.898 ± 1.2 in data set [2].
For “ACATTTGTTGATACAACCATAAAATGATAATTAATAATTATTTATAATCCACCCATAAATTGATAATTATCAACAAACGCCCGGTCGCGGTACTCTGATCATAGTCAGACCAACATTGCTACGACCC”, in that order: -2.37 ± 0.16 and 1.24 ± 0.42.
For “ACATTTGTTGATACAACCATAAAATGATAATTAATAATTATTTATAATCCACCCATAAATTGATAATTATCACACCCATAAATTGATATTGCCTCTGATCATAGTCAGACCAACATTGCTACGACCC”, in that order: -3.09 ± 0.19 and 0.382 ± 0.22.
Regarding “ACATTTGTTGATACAACCATAAAATGATAATTAATAATTATTTATACACCCATAAATTGATAATTATCAACAAACGCCCGGTCGCGGTACTCTGATCATAGTCAGACCAACATTGCTACGACCCGTA”, the “relative integration efficiency (log2)” value was -3.12 ± 0.48 in data set [1] and 0.401 ± 0.042 in data set [2].
For “ACATTTGTTGATACAACCATAAAATGATAATTAATAATTATTTATACACCCATAAATTGATAATTATCACACCCATAAATTGATATTGCCTCTGATCATAGTCAGACCAACATTGCTACGACCCGTA”, in that order: -3.6 ± 0.11 and -0.465 ± 0.37.
For “ACATTTGTTGATACAACCATAAAATGATAATTAATAATTATTTATCACCCATAAATTGATAATTATCAACAAACGCCCGGTCGCGGTACTCTGATCATAGTCAGACCAACATTGCTACGACCCGTAT”, in that order: -0.654 ± 0.39 and 2.6 ± 0.053.
For “ACATTTGTTGATACAACCATAAAATGATAATTAATAATTATTTATCACCCATAAATTGATAATTATCACACCCATAAATTGATATTGCCTCTGATCATAGTCAGACCAACATTGCTACGACCCGTAT”, in that order: -3.21 ± 0.32 and -2.04 ± 0.35.
As to “ACATTTGTTGATACAACCATAAAATGATAATTAATAATTATTTCACCCATAAATTGATAATTATCAACAAACGCCCGGTCGCGGTACTCTGATCATAGTCAGACCAACATTGCTACGACCCGTATTC”, the “relative integration efficiency (log2)” value is -2.91 ± 0.43 in data set [1] and 0.365 ± 0.079 in data set [2].
For “ACATTTGTTGATACAACCATAAAATGATAATTAATAATTATTTCACCCATAAATTGATAATTATCACACCCATAAATTGATATTGCCTCTGATCATAGTCAGACCAACATTGCTACGACCCGTATTC”, in that order: -3.8 ± 0.49 and -2.62 ± 1.1.
For “ACATTTGTTGATACAACCATAAAATGATAATTAATAATTCACCCATAAATTGATAATTATCAACAAACGCCCGGTCGCGGTACTCTGATCATAGTCAGACCAACATTGCTACGACCCGTATTCGCAC”, in that order: -1.96 ± 0.21 and 1.02 ± 0.13.
For “ACATTTGTTGATACAACCATAAAATGATAATTAATAATTCACCCATAAATTGATAATTATCACACCCATAAATTGATATTGCCTCTGATCATAGTCAGACCAACATTGCTACGACCCGTATTCGCAC”, in that order: -2.69 ± 0.18 and 1.16 ± 0.069.
“ACATTTGTTGATACAACCATAAAATGATAATTAATACACCCATAAATTGATAATTATCAACAAACGCCCGGTCGCGGTACTCTGATCATAGTCAGACCAACATTGCTACGACCCGTATTCGCACCGA”: the “relative integration efficiency (log2)” value in data set [1] is -2.6 ± 0.28; in data set [2], 0.59376 ± 0.00039.
For “ACATTTGTTGATACAACCATAAAATGATAATTAATACACCCATAAATTGATAATTATCACACCCATAAATTGATATTGCCTCTGATCATAGTCAGACCAACATTGCTACGACCCGTATTCGCACCGA”, in that order: -3.47 ± 0.4 and -0.393 ± 0.24.
For “ACATTTGTTGATACAACCATAAAATGATAATTAATCACCCATAAATTGATAATTATCAACAAACGCCCGGTCGCGGTACTCTGATCATAGTCAGACCAACATTGCTACGACCCGTATTCGCACCGAC”, in that order: -1.83 ± 0.42 and 1.09 ± 0.077.
For “ACATTTGTTGATACAACCATAAAATGATAATTAATCACCCATAAATTGATAATTATCACACCCATAAATTGATATTGCCTCTGATCATAGTCAGACCAACATTGCTACGACCCGTATTCGCACCGAC”, in that order: -1.92 ± 0.059 and -0.602 ± 0.3.
In the case of “ACATTTGTTGATACAACCATAAAATGATAATTACAAAACGCCCGGTCGCCGGCGACACAAACGCCCGGTCGCGGTAAGAGGATCATAGTCAGACCAACATTGCTACGACCCGTATTCGCACCGACAC”, the entries for the “relative integration efficiency (log2)” value in data set [1] and in data set [2] were -2.05 ± 0.22 and 1.07 ± 0.12, respectively.

Values taken from the supplement of paper PMC10201428.
